Results reported in PMC5161667 (Nature, 2016).
Changes are numbered by the printed parent chain. Names and notes keep the numbering of the source. Values belong to the molecule of their own block, whether it stands above or below them.

Columns and labels:
[1] = molecular target: ExbD_(N78C) labeled with MTSL (Ton subcomplex) (E. coli (K-12 strain)) (UniProt P0ABV2); assay: DEER spectroscopy
[2] = molecular target: ExbD_(N78C) labeled with MTSL (fully assembled Ton complex) (E. coli (K-12 strain)) (UniProt P0ABV2); assay: DEER spectroscopy
[3] = molecular target: ExbD_(E113C) labeled with MTSL (E. coli (K-12 strain)) (UniProt P0ABV2); assay: DEER spectroscopy
[4] = molecular target: ExbD_(E113C) (E. coli (K-12 strain)) (UniProt P0ABV2); assay: cross-linking
[5] = molecular target: the molecule itself; assay: crystal structure
[6] = molecular target: the molecule itself; assay: DEER spectroscopy
[7] = molecular target: the molecule itself; assay: crystal structure; remark: listed apart in the source

B1: ExbB (natural protein, E. coli (K-12 strain), UniProt P0ABU7 1-244, looked up)
chain: MGNNLMQTDLSVWGMYQHADIVVKCVMIGLILASVVTWAIFFSKSVEFFNQKRRLKREQQLLAEARSLNQANDIAADFGSKSLSLHLLNEAQNELELSEGSDDNEGIKERTSFRLERRVAAVGRQMGRGNGYLATIGAISPFVGLFGTVWGIMNSFIGIAQTQTTNLAVVAPGIAEALLATAIGLVAAIPAVVIYNVFARQIGGFKAMLGDVAAQVLLLQSRDLDLEASAAAHPVRVAQKLRAG
stoichiometry N [5]: 5

B2: ExbB labeled at C25 with MTSL (natural protein, E. coli (K-12 strain), UniProt P0ABU7 1-244, looked up)
chain: B1 chain
modifications: MTSL spin label on Cys25 (50% labeling efficiency)
stoichiometry N [6]: 5

B3: ExbB_(C25S), selenomethionine-substituted (natural protein, E. coli (K-12 strain), UniProt P0ABU7 1-244, looked up)
chain: B1 chain with C25S
modifications: selenomethionine-substituted
stoichiometry N [7]: 5

Second part, the molecule after the results:

stoichiometry N [1]: 2
Molecule: ExbD_(N78C) labeled with MTSL (Ton subcomplex) (from UniProt P0ABV2 1-141) (natural protein)

stoichiometry N [2]: 2
Molecule: ExbD_(N78C) labeled with MTSL (fully assembled Ton complex) (from UniProt P0ABV2 1-141) (natural protein)

stoichiometry N [3]: 2
Molecule: ExbD_(E113C) labeled with MTSL (from UniProt P0ABV2 1-141) (natural protein)

stoichiometry N [4]: 2
Molecule: ExbD_(E113C) (from UniProt P0ABV2 1-141) (natural protein)
